From patent US20210380707A1

What was measured:
[1] = target: recombinant human CD70 tagged with mouse IgG2a Fc (AcroBiosystems Cat#CDL-H525a) (human; mouse) (UniProt P32970); assay: indirect ELISA, hybridoma supernatant, coated antigen A at 1 µg/ml
[2] = target: Mouse IgG2a protein (AcroBiosystems Cat# IGA-M5207) (mouse) [IgG part: P01863]; assay: indirect ELISA, hybridoma supernatant, coated antigen B at 1 µg/ml
Chain of Mouse IgG2a protein (AcroBiosystems Cat# IGA-M5207) (mouse) [IgG part: P01863] (P01863 98-330): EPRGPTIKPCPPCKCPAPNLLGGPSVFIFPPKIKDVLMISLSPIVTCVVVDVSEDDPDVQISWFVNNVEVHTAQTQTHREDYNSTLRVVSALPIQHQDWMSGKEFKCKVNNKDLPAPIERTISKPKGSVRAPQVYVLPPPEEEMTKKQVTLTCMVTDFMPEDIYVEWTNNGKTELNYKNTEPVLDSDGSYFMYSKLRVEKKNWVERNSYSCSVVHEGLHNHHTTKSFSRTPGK

Chain of recombinant human CD70 tagged with mouse IgG2a Fc (AcroBiosystems Cat#CDL-H525a) (human; mouse) (P32970 39-193): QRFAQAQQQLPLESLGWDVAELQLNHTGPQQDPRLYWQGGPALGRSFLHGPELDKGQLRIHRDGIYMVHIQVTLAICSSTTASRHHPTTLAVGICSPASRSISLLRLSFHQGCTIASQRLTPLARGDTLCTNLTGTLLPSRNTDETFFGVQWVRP

B1: 18F8A8 (antibody, IgG1, V domains shown)
VH: QVTLKESGPGILQPSQTLSLTCSFSGFSLSTSNMGVAWIRQPLGKGLEWLLYILWNDTKYYNPALKSRLSISKDTYNNQVFLKIVNVDTADTATYYCARIRRDYALDYWGQGTSVTVSS
VL: DIVMSQSPSSLAVSVGEKVTMNCKSSQSLLYSNNQKNYLAWYQQKPGQSPKLLIYWASTRESGVPDRFTGSGSGTDFTLTISSVKAEDLAVYYCQQYYIYPLAFGGGTKLEIK
An OD 450 [1] of 1.97 OD 450 and an OD 450 [2] of 0.146 OD 450 were found for B1 in this work.

B2: 19H7E4 (antibody, IgG1, V domains shown)
VH: QVTLKESGPGILQPSQTLSLTCSFSGFSLSTSNVGVGWIRQPSGKGLEWLLHILWNDGKYYNPALKSRLTISKDTSTNQVFLKIADVDTADSATYYCARLRRDYGMDYWGQGTSVTVSS
VL: DIVMSQSPSSLAVSVGEKVTMSCKSSQSLLYSYNQKNYLAWYQQKPGQSPKLLIYWASTRESGVPDRFTGSGSGTDFTLTISSVKAEDLAVYYCQQYYTYPYAFGGGTKLEIK
An OD 450 [1] of 1.85 OD 450 and an OD 450 [2] of 0.134 OD 450 were found for B2 in this work.

B3: 3H11D12E7 (antibody, V domains shown)
VH: QIQLVQSGPELKKPGETVKISCKASGYTFTDYSMHWVKQAPGKGLKWMGWINTETGEPTYADDFKGRFAFSLETSASTAYLQINNLKNDDTATYFCARSFYRYDWYFDVWGAGTTVTVSS
VL: QIVLTQSPAIMSASPGEKVTITCSASSSVSFMHWFQQKPGTSPKLWIYSTSNLASGVPARFSGSGSGTSYSLTISRMEAEDAATYYCQQRTSFPPTFGGGTNLEIK
An OD 450 [1] of 1.87 OD 450 and an OD 450 [2] of 0.115 OD 450 were found for B3 in this work.

B4: 16D7C8 (antibody, IgG3, V domains shown)
VH: QVQLQQSGPELVKPGASVRISCKASGYTFTSFYIHWVKQRPGQGLEWIGWISPINININYNEKFKGKATLTADKSSSTVYMQLSSLTSEDSAVYFCEGTSENFDVWGAGTTVTVSS
VL: DVLMTQIPLSLPVSLGDQASISCRSTQNIVHSNGNTYLEWYLQKPGQSPKLLIYKVSNRFSGVPDRFRGSGSGTEFTLKITRVEADDLGVYYCFQGSHVPFTFGAGTKLELK
An OD 450 [1] of 2.12 OD 450 and an OD 450 [2] of 0.154 OD 450 were found for B4 in this work.

B5: 4E6G9 (antibody, V domains shown)
VH: QIQLVQSGPELKKAGETVKISCKASGYTFAAYSMHWVKQAPGKGLKWMGWINTETGEPTYADDFKGRFAFSLETSASTAYLQINNLKNEDTATYFCTRDDYDGGRFSYWYFAVWGAGTTVTVSS
VL: DIQMTQSPSSLSASLGGKVTITCKASQDINKYIAWYQHRPGKGPRLLIRYTSTLQPGIPSRFSGSGSGRDYSFSINNLEPEDIATYYCLQYDNLLTFGGGTKLEIK
An OD 450 [1] of 2.51 OD 450 and an OD 450 [2] of 0.121 OD 450 were found for B5 in this work.

B6: 11E12E8 (antibody, IgG1, V domains shown)
VH: DVQLVESGGGLVQPGGSRKLSCAASGFTFSRFGMNWVRQAPEKGLEWVAYISSGSGDIYYADTVKGRFTISRDNPKNTLFLQMTSLRSEDTAMYYCAVTWFAYWGQGTLVTVSA
VL: QAVVTQEPALTTSPGETVTLTCRSSTGAVTTSNYANWVQEKPDHLFTGLIGGTNNRAPGVPARFSGSLIGDKAALTITGAQTEDEAIYFCVLWYSNHFIFGSGTKVTVL
An OD 450 [1] of 1.01 OD 450 and an OD 450 [2] of 0.107 OD 450 were found for B6 in this work.
